Blank lines part the entries; values can stand above or below the substance they belong to.
Legend:
Assay in all cases: SEC-MALS; MiniDAWN TREOS II with Superdex 200 10/300 increase, 20 mM Tris-HCl pH 8.0, 100 mM NaCl, 0.5 ml/min; monomer and 6-mer peaks
[1] = molecular target: OrfG C-terminal subdomain (OrfG_(223–331): from Ala223 to Asp331) (Streptococcus thermophilus (ICESt3))
[2] = molecular target: OrfG central domain (OrfG_(64–204): from Ser64 to Ala204) (Streptococcus thermophilus (ICESt3))
[3] = molecular target: OrfG soluble domain (OrfG_(64–331): from Ser64 to Asp331) (Streptococcus thermophilus (ICESt3))

- stoichiometry N [1]: 6
Substance: OrfG C-terminal subdomain (OrfG_(223–331): from Ala223 to Asp331) (domain or fragment)

- stoichiometry N [2]: 6
Substance: OrfG central domain (OrfG_(64–204): from Ser64 to Ala204) (domain or fragment)

- mass fraction of the 6-mer peak [3]: 2.7%
- stoichiometry N [3]: 6
Substance: OrfG soluble domain (OrfG_(64–331): from Ser64 to Asp331) (domain or fragment)

From article PMC8012802
